From US20150158921A1 come the findings set out here.

Among the targets are human α7 nAChR (human) (UniProt P36544); rat α6/α3β4 nAChR (rat) (UniProt P12392); rat α7 nAChR (rat) (UniProt Q05941); rat α4β2 nAChR (rat) (UniProt P09483).
Holding throughout (experiment): cell-based or functional assay
Experiment [1] addresses human α6/α3β2β3 nAChR (human) (UniProt P17787).
Experiment [2] concerns the target rat NMDA receptor NR1-2b/NR2C (rat) (UniProt P35439).
Experiment [3] addresses rat NMDA receptor NR1-2b/NR2A (rat) (UniProt P35439).
For experiment [4], the target named is rat NMDA receptor NR1-2b/NR2D (rat) (UniProt P35439).
For experiment [5], the target named is rat NMDA receptor NR1-2b/NR2B (rat) (UniProt P35439).

Where “and” joins values, the source holds several entries; their conditions need not be identical. Identical values can stand only once.

rat α7 nAChR (rat), sequence (Q05941 23-502): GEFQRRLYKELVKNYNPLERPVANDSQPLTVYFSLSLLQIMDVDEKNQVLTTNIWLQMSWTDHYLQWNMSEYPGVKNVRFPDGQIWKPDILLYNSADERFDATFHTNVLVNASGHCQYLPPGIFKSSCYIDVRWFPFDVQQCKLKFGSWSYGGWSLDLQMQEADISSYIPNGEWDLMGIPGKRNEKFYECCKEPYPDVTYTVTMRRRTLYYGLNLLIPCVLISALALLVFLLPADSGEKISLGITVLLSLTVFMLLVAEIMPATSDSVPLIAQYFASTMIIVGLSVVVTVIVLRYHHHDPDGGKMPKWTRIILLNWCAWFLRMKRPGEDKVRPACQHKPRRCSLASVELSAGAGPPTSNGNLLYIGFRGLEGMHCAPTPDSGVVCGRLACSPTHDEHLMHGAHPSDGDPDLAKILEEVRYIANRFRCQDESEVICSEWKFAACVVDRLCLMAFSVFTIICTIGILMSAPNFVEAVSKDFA
rat α6/α3β4 nAChR (rat), sequence (P12392 21-495): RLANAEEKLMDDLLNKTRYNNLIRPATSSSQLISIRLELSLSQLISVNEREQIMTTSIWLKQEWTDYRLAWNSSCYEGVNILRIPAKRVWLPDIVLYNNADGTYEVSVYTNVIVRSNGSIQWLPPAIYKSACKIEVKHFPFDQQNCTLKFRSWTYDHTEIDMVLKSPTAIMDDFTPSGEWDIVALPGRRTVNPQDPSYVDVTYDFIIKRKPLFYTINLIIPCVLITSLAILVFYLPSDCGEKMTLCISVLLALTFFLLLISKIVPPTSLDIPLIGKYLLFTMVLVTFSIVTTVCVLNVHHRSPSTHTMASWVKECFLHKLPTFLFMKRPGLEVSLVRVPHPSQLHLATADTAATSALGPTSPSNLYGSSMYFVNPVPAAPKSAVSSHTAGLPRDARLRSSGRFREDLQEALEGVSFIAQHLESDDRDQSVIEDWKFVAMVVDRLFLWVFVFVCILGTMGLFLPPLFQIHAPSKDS
human α7 nAChR (human), sequence (P36544 23-502): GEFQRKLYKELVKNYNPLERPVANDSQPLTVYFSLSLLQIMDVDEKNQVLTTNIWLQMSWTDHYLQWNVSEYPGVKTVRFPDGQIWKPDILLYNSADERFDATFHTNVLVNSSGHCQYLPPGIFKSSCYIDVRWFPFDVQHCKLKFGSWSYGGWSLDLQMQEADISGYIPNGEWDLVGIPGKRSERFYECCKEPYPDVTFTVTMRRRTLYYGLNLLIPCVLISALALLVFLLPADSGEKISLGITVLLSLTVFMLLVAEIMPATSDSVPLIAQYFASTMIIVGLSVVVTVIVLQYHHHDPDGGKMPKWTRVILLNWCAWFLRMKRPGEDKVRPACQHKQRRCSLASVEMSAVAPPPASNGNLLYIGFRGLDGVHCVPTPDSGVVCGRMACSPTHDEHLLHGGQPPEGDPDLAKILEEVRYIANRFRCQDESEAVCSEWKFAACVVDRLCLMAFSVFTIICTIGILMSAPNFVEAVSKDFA
human α6/α3β2β3 nAChR (human), sequence (P17787 26-502, chain 1 of 2): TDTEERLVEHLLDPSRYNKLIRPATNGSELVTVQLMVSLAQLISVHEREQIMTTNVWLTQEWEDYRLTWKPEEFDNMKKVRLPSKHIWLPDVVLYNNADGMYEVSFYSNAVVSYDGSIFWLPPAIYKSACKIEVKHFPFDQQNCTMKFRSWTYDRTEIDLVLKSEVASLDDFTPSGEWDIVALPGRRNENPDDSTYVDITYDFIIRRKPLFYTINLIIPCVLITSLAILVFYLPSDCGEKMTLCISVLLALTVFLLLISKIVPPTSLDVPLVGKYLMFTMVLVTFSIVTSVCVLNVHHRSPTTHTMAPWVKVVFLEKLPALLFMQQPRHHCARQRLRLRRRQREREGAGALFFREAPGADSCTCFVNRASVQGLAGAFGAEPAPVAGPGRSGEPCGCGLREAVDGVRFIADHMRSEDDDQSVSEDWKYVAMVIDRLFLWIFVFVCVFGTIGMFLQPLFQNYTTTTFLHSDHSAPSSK
human α6/α3β2β3 nAChR (human), sequence (Q05901 22-458, chain 2 of 2, further chain): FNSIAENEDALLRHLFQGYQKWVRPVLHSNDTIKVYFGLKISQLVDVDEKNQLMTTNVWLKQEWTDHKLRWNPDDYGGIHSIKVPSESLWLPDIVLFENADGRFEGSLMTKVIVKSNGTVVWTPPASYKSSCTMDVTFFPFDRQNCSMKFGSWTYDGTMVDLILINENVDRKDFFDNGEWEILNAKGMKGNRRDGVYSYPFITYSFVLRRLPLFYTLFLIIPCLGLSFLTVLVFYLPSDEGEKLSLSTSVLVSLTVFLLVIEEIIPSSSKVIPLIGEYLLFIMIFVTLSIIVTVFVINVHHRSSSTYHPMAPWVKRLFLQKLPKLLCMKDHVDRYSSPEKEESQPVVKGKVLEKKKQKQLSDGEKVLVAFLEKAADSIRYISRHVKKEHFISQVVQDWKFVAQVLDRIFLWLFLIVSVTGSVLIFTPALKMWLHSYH
rat α4β2 nAChR (rat), sequence (P09483 31-630, chain 1 of 2): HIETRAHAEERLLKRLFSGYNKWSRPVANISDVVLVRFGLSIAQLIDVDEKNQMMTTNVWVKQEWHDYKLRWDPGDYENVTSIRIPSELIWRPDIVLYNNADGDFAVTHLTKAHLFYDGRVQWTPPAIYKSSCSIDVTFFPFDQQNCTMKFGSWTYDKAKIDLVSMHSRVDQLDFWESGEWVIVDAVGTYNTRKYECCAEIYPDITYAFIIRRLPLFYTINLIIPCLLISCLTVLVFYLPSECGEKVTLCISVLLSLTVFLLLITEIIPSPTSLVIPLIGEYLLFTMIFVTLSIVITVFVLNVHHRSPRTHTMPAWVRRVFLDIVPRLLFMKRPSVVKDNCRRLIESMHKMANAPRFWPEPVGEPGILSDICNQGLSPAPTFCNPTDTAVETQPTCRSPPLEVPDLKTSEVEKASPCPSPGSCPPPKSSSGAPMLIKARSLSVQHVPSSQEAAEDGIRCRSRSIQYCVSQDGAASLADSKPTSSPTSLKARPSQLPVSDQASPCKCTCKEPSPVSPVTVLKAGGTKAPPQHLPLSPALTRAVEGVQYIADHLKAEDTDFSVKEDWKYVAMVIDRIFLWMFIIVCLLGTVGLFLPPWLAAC
rat α4β2 nAChR (rat), sequence (P12390 25-500, chain 2 of 2, further chain): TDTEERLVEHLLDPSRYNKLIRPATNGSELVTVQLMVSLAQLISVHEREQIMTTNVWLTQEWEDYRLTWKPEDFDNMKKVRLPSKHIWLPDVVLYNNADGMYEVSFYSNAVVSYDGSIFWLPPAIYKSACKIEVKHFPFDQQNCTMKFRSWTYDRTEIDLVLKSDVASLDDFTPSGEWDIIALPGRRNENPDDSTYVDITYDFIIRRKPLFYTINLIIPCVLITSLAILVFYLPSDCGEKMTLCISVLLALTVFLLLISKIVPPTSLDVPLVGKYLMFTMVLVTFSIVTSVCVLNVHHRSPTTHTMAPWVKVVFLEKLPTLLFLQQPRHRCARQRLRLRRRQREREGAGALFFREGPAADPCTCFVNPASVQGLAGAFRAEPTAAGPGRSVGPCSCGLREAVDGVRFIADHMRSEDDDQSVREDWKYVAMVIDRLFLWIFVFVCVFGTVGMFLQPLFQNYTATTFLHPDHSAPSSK

With “αO-conotoxin GeXIVA14 (GeXIVA mature peptide isomer with disulfide bonds I-IV, II-III)”, the Half-blocking dose IC50, ACh-gated current, oocyte voltage clamp amounted to 865 nM in the experiment with human α7 nAChR (human); 611 nM with rat α6/α3β4 nAChR (rat); 1740 nM in the experiment with rat α7 nAChR (rat); 197 nM in [1]; 200 nM with rat α4β2 nAChR (rat). Besides, the Half-blocking dose IC50, NMDA receptor current, oocyte voltage clamp is over 10000 nM in [2], 7400 nM in experiment [3] and over 10000 nM in [4].

In the case of “αO-conotoxin GeXIVA13 (GeXIVA mature peptide isomer with disulfide bonds I-III, II-IV)”, the Half-blocking dose IC50, ACh-gated current, oocyte voltage clamp in the experiment with human α7 nAChR (human) was found to be 3300 nM; in the experiment with rat α6/α3β4 nAChR (rat), 483 nM; in the experiment with rat α7 nAChR (rat) it was 4960 nM; in experiment [1], 141 nM. For the same substance, the Half-blocking dose IC50, NMDA receptor current, oocyte voltage clamp in experiment [5] was > 10000 nM and 17000 nM; in [2] it was over 10000 nM; in experiment [3] it was over 10000 nM; in experiment [4], over 10000 nM.
